In publication PMC4346626:

Target: envelope (E) protein of DENV3 reference strain CH53489, on the virus particle (dengue virus serotype 3, strain CH53489)

B1: Fab fragment of human monoclonal antibody 5J7 (Fab, V domains shown)
VH: QVQLVQSGAELRKPGSSVKVSCRASGGTFSSYTFNWVRQAPGQGLEWMGGFIPVFNTTNYAQTFQGRVTIAADKSTSTAYMELRSLRSEDTAIYYCARDKELLFSRAFDIWGQGTMVTVSS
VL: DIQMTQSPSSLSASVGDRVTITCRASQSISRYLNWYQREPGKAPKLLIYGASSLQRGVPSRFSGSGSGTDFTLTISSLQPEDFATYYCQQSQYIPYTFGQGTKVDIK
  neut50, flow cytometry-based neutralization of DENV3 (CH53489) infection of Vero-81 cells: 0.041 µg/mL
